# Results reported in FireProtDB (doi:10.1016/0022-2836(74)90188-0).
# B1: Guanyl-specific ribonuclease T1 wild type, P00651 (protein)
# chain: MMYSKLLTLTTLLLPTALALPSLVERACDYTCGSNCYSSSDVSTAQAAGYQLHEDGETVGSNSYPHKYNNYEGFDFSVSSPYYEWPILSSGDVYSGGSPGADRVVFNENNQLAGVITHTGASGNNFVECT
# Details: Aspergillus oryzae (strain ATCC 42149 / RIB 40); pH 4.7; 38 °C; GdnHCl; DSC; glycine 0.04 M; reversible: yes(>90%); whole UniProt chain shown
protein,measurement,value
B1,unfolding free energy,6.6 kcal/mol
